Results on three molecules are retold here after PMC4482739, “MamA as a Model Protein for Structure-Based Insight into the Evolutionary Origins of Magnetotactic Bacteria” (PLoS ONE, 2015).

“And” between values parts separate entries of the source, which are not always exact repeats. Identical values can stand only once.

Data set [1] addresses MamAΔ41 RS-1 TM (triple mutant E140A, K141A, E143A) (Desulfovibrio magneticus RS-1). The data set is described as follows: SEC; Superdex 200, buffer E (10 mM HEPES pH 7.5, 0.5 M NaCl, 5 mM βME); sizes from elution volumes against a standard calibration curve. A general note: SEC sorts molecules by how far they enter the pores of the column.
For data set [2] the target is unchanged. The data set is described as follows: crystal structure; X-ray, 2.88 Å, space group I4; crystals from 0.1 M Tris pH 8.1, 0.75 M sodium potassium tartrate, 0.5% PEG monomethyl ether 5000; six monomers as two trimeric rings in the asymmetric unit.
In data set [3] the target is MamAΔ41 from Desulfovibrio magneticus RS-1 (wild type) (Desulfovibrio magneticus RS-1). Briefly: SEC; Superdex 200, buffer E (10 mM HEPES pH 7.5, 0.5 M NaCl, 5 mM βME); sizes from elution volumes against a standard calibration curve.
Data set [4] concerns the molecule itself. The data set is described as follows: SEC; Superdex 200; sizes from elution volumes against protein markers; buffer for these proteins not stated.

For “MamAΔ41 RS-1 TM (triple mutant E140A, K141A, E143A) (domain or fragment)”, the stoichiometry N in data set [1] is 13 and 8; in data set [2] it was 3.
In data set [3], “MamAΔ41 from Desulfovibrio magneticus RS-1 (wild type) (domain or fragment)” gave a stoichiometry N of 8.

B1: MamAΔ41 from Magnetospirillum gryphiswaldense MSR-1 (domain or fragment, UniProt Q93DY9 42-217, looked up)
chain: DDIRQVYYRDKGISHAKAGRYSEAVVMLEQVYDADAFDVEVALHLGIAYVKTGAVDRGTELLERSIADAPDNIKVATVLGLTYVQVQKYDLAVPLLVKVAEANPVNFNVRFRLGVALDNLGRFDEAIDSFKIALGLRPNEGKVHRAIAYSYEQMGSHEEALPHFKKANELDERSAV
notes: MamA of Magnetospirillum gryphiswaldense MSR-1, Δ41 mutant (the putative N-terminal TPR repeat removed); Trimer by SEC; also called MamAΔ41_(MSR-1)
Regarding B1, in data set [4], the “stoichiometry N” value is 3.

A word on the stoichiometry N: it is a count of units in the complex or per binding partner.
